Test results: patent publication US20050031645, “Vaccine compositions” (Advanced Microbial Solutions Corporation, published 2005)

Molecular target: T1, DtxR (Corynebacterium diphtheriae, UniProt H2I233 SEQ:1-226)
T1 sequence: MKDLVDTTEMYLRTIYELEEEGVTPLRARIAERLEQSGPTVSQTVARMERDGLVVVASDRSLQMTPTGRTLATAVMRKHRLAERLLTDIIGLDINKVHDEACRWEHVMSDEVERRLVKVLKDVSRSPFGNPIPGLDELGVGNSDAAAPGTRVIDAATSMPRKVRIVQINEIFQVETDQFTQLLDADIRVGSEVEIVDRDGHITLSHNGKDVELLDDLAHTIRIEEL
Assay: EMSA; competed by unlabeled tox DNA, not by nonspecific DNA; 10 mM Tris-OAc pH 7.4, 50 mM KCl, 1 mM EDTA, calf thymus DNA
Conditions: chain copies: 2 (inferred); label: 32P end

B1: toxO (tox operator) 100 bp fragment (dsDNA)
DNA 1: ATAATTAGGATAGCTTTACCTAATTAT
DNA 2: ATAATTAGGTAAAGCTATCCTAATTAT
Q: Does B1 bind?
A: binds
